Measured values as given in article PMC7835342.

B1: 20 bp palindromic crystallization DNA (dsDNA)
DNA 1: CAGTATCCTCGAGGATACTG
DNA 2: CAGTATCCTCGAGGATACTG
B2: BRH (hxlAB promoter EMSA probe) (dsDNA)
DNA 1: CCTCACAGTATCCTCCAAGTAACTTGTTGACTTCAAAGTGCCTACTTCTC
DNA 2: GAGAAGTAGGCACTTTGAAGTCAACAAGTTACTTGGAGGATACTGTGAGG

How the values were obtained:
HxlR-WT [1] = target: T1, HxlR-WT (Bacillus subtilis 168, UniProt P42406 1-120); experiment: X-ray crystallography (2.9 A); 1 mM FA-treated protein; Cys11-CH2-Lys13 methylene bridge; 50 mM MgCl2 in crystallization; EMSA: protein preincubated +/- FA (1 mM in Methods, 0.6 mM in legends) in 20 mM HEPES pH 7.5, 300 mM NaCl, 1-2 h, 37 C; then 50 nM dsDNA in 20 mM HEPES pH 7.0
HxlR-WT [2] = target: T1, HxlR-WT; experiment: EMSA; FA-treated (0.6 mM FA in text/legend; 1 mM in Methods); DNA binding enhanced; EMSA: protein preincubated +/- FA (1 mM in Methods, 0.6 mM in legends) in 20 mM HEPES pH 7.5, 300 mM NaCl, 1-2 h, 37 C; then 50 nM dsDNA in 20 mM HEPES pH 7.0
HxlR-K13A = HxlR-K13A (Bacillus subtilis 168, UniProt P42406 1-120, K13A); experiment: EMSA; no FA; higher basal binding than WT; EMSA: protein preincubated +/- FA (1 mM in Methods, 0.6 mM in legends) in 20 mM HEPES pH 7.5, 300 mM NaCl, 1-2 h, 37 C; then 50 nM dsDNA in 20 mM HEPES pH 7.0

Binder	binding result (HxlR-WT [1])	binding result (HxlR-WT [2])	binding result (HxlR-K13A)
B1	binds	–	–
B2	–	binds	binds
